Source: the nanobody polyreactivity screen of Harvey et al. (2022)

Assay: yeast display, Sf9 membrane polyspecificity reagent, FACS + sequencing; frameworks hold sequencing errors
In short: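 Galactose induction of a Saccharomyces cerevisiae BJ5465 synthetic nanobody display library ran 36–48 hours. The cells were then stained for 1 hour at 4 °C with 10% biotinylated, detergent-solubilized Sf9 membrane reagent, pulled down on streptavidin microbeads and FACS-sorted into low and high (top ~1%) gates on expression and reagent-binding fluorescence. Labels for polyreactivity follow the gate of origin.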

| Sequence | polyreactivity (PSR sort gate) |
| --- | --- |
| QVQLVDSRRGLVQAGGSLRLSCAASGRIFGYNAMGWYREAPGKVRELVAAISSGGGTNYADSVKGRFTISRDNAKNPVYLQMHSLKPEDTAVYYCAVRRRRYHTYYRGYDYWGQGTQVTVSS | low polyreactivity |
| QVQLVDSVGGLVQAGGSLPLICAASGSTFGNYAKGWYRQAPGKERELVAAINSGDSTSYADSVKGRFTISRDNANNTVYLHMNSLKPEDTAVYYCSVRPRRNQYGYWGQGTQLTVSS | low polyreactivity |
| QVQLVDSVGGLVQAGGSLRLSCAASGSTFVYNTMGWYRQEPGKEREMVAAISYRGSTYYADSVKGRFTISRENAKNTVFLQMNSLKPEDNAVYYCNAPRRQYEYDYWGQGTQVTVSS | high polyreactivity |
| QVQLVDTGGGLVQAGGSLRLSCAASGITFYFYVMGWYRQAPGKERELVADISTSDDSTYYADSVKGRFTISRDNAKNTVYLQMNSLKPEDTAVYYCATATRTYSAWYEYVYWGQGTQVTVSS | low polyreactivity |
| QVQLVEAGGGLDQPGGSLRLSCAASGSTFYVNTRRWYIQAPGQELELVAAISSTGSSTYFADSVKGRFTISRDNAKNTVYLQMNSLKPEDTAVYYCAAESYRWWYLYDYYYWGQGTQVTVSS | high polyreactivity |
| QVQLVEAGGGLVQAGGSLRLSCAASAFTFSPTAMGWYRQAPGKERELGAAIDWSGDRTYYADSVKGRFTISRAHAKNTVYLQMNSLKPEDTGVYYCNVVRRSPGDYSYYYWGQGSQVTVSS | low polyreactivity |
| QVQLVEAGGGLVQAGGSLRLSCAASGFIFPSYVRGWYSQAPGKERELVATISRSGGSTYYADSVKGRFTISRDNAKNTGYLQMNSLKPEDTAVYYCATRRRGPYSPYSPYDYWGQGTQVTVSS | high polyreactivity |
| QVQLVEAGGGLVQAGGSLRLSCAASGFILENYAMGWNRQAPGKERELVAAISGSGGTTYYADSVKGRFTISRDNAKNTVYLQMNSLKPEDTAVYYCNRDRLLRQYDYWGQGTQVTVSS | high polyreactivity |
| QVQLVEAGGGLVQAGGSLRLSCAASGGTFNSNAMGWYRQAPGKERELGASITWRGGTYYADSVKGRFTISRDNAKNTVYLQMNSLKPEDTAVYYCAARGTIPGIHWIYYYWGQGTQVTVSS | high polyreactivity |
| QVQLVEAGGGLVQAGGSLRLSCAASGIIFYLYTMGWYRPAPGKERELVAAISSSDGSTYYADSVKGRFTISRDNAKNTVYLQMNSLKPEDTAVYYCAAEYRGYLDDYYYWGQGTQVTVSS | high polyreactivity |
| QVQLVEAGGGLVQAGGSLRLSCAASGITLYLYVMGWYRQAPGKEREFVAAIRWSGGSTYYADSVKGRFTISRDNAKNTVYLQMNSLKPEDTAVYYCNAEVYCYYSARRPGYEYWGQGTQVTVSS | low polyreactivity |
| QVQLVEAGGGLVQAGGSLRLSCAASGSIFGYYAMGWYRQAPGKERELVAAISYRGGSTYYADSVKGRFTISRDNAKNTVYLQMNSLKPEDTAVYYCNAGGRRRIFAHSSTGDYWGQGTQVTVSS | high polyreactivity |
| QVQLVEAGGGLVQAGGSLRLSCAASGSIFSHNAMGWYRQAPGKERELVAAISVSGGTTYYADSVKGRFTISRDNAKNTVYLQMNSLKPEDTAVYYCAAKRFQGVGYLGQGTQVTVSS | high polyreactivity |
| QVQLVEAGGGLVQAGGSLRLSCAASGSIFVGYAMGWYRPAPGKEREFVAAINYRGGATYYADSVKGRFTISRDNAKNTDYLQMNSLQPEDTAVYYCAVGGWVIYPASLDYWGQGTQVTVSS | low polyreactivity |
| QVQLVEAGGGLVQAGGSLRLSCAASGYTFGKNAMGWYRQAPGKERELVAAITYSGGSTYYADSVKGRFTISRDNAKNTVYLQMNSLKPEDTAVYYCAADNPSDVYDTWVYYWGQGTQVTVSS | high polyreactivity |
| QVQLVEAGGGLVQAGGSLRLSCASSGNTFYPYAMGWYRQAPGKERELVAVITSGTDTYYADSVKARFTISRDNAKNTVYLQMNSLKPEDTAVYYCAASLYWRYGYWGQGTQVTVSS | high polyreactivity |
| QVQLVEAGGGLVQAGGSLRLTCAASGPIFLSKAMGWYRQAPGTERELVAAINSGGNTDYADSVKARFTISRDNEKNTFYLQMNSLKPEDTAVYYCAADAFSWDHDYWGQGTQVTVSS | low polyreactivity |
| QVQLVEAGGGLVQAGGSLRLTCAASVRTFTGYAMGCYRQAPGTERELVAAMTLSGGSTYYADSVKGRFTISRDNAKNTVYLQMNSLKPEDTAVFYCAAKWWHFYPYDYWGQGTQVTVSS | high polyreactivity |
| QVQLVEAGGGLVQAGGTLRLSCDPSGLIFGLYAMGWYRHAPGKERELVAAISESGGGITYYADSVKGRFTISRDNAKNTVYLQMYSLKPEDTAVYYCNADRYVWAGFDFSTYDYWGQGTLVTVSS | low polyreactivity |
| QVQLVEAGGGLVQSGGSLRLSCAASGSIFNIYAMGWSRQAAGKDRELVAVISSRGGRSYYADSVKGRFTISRDNAKNTVYLQMTSLKPEDTAVYYCAAGYLRQGYRGYDYWGQGTQVTVSS | high polyreactivity |
| QVQLVEAGGGVVQAGGSLRLSCAASGIIFYPYALGWYRQAPGKERELVADITSGGGTNYADSVKGRFTISRDNAKNTVYLQMNSLKPEDTAVYDCAAEVRGYHWGTYYEFYYWGQGTQVTVSS | low polyreactivity |
| QVQLVEAVGGLVQAGGSLRLSCAASGNTYYGNAMGWYRQAPGKEREFVAAITIRTGSTYYADSVKGRFTISRDNAKNTVYLQMNSLKPDDTAVYYCAADAYWRWNWYDYWGQGTQVTVSS | high polyreactivity |

| Sequence | polyreactivity (PSR sort gate) |
| --- | --- |
| QVQLVEEGGGLVQAGGSLSLSCAASGRIFKTNSMGWYIQAPGKERELVAGSTDSGDSTYYADSVKGRFTISRDNAKNTVYLQMNSLKPEDTAVYYCATDPASPYIYDYWGQGTQVTVSS | low polyreactivity |
| QVQLVEKGGGLVQAGGSLRLSCAASGRTFRSNAMGWYRQAPGKERELVAAIRSRGGSTYYADSVKGRFTISRDNAKNTVYLQMNSLKPEDTAVYYCAAKHGSTSHDSWGQGTQVTVSS | high polyreactivity |
| QVQLVEPGGGLVQAGGSLRLSCAASGFTFYDYAMGWYRQAPGKERELVARINGGGGTNYADSVKGRFTISRDNAKNTVYLQMNSLKPEDSAVYYCAADLYFRQGDVDLLRYDYWGQGTQVTVSS | low polyreactivity |
| QVQLVEPGGGLVQAGGSLRLSCAASGSIFAYYVMGWYRQAPGKERELVAGISFSGGTTYYADSVNGRFTISRDNAKNTVYLQMNSLKPEDTAVYYCNADPDHREFDYWGQGTQVTVSS | low polyreactivity |
| QVQLVESAAGLVQAGGSLRLSCAASGGIFHGYAMGWYRHAPGKERELVAAISWSTGSTYYADSVKGRFTISRDNAKNTVYLQMNSLKPEDTAVYYCAARYLSGTSRYYYWGQGTQVTVSS | high polyreactivity |
| QVQLVESAAGLVQAGGSLRLSCAASGSTFGHYTMGWYRQAPGKERDLVAAISWSGGRTYYADSVKGRFTISRDYAKNTVYLQMNSLKPEDTAVYYCYVGYRGWSVNSWGQGTQVTVSS | high polyreactivity |
| QVQLVESAAGLVQAGGSLRVSCAASGSSFRLYAMGWYRPAPGKEREFVARIRWRGGSTNYADSVKGRFTISRDNAKNNVYLQMNSLKTEDTAVYYCAAKQGTVRAHTYVPWYDYWGQGTQVTVSS | high polyreactivity |
| QVQLVESAAGLVQAGGSLSLICAASGYIFATYAMGWYIQAPGTETELVAAITSGGITNYADSVKGRFTISRDNAKNTVYLQMNSLKPEDTAVYYCATGRRRYYFREYYYWGQGTQVTVSS | high polyreactivity |
| QVQLVESAGCLVQAGASLRLSCAASGGTFRLYAMGWSRQAPGKERELVAAITGSSGGTYYADSVKGRFTISRDNAKNTVYLQMNSLKPEDTAVYYCAASSSYWGQGTQVTVSS | low polyreactivity |
| QVQLVESAGGIDQAGGRLRLSSAASGGIFTPYAMGCYRQAPGKDRELVATISSDGSTNYADSVKGRFTISRDNAKNTVYLQMNSLKPEDTAVYYCNIDRHKVAGTLPGWWYDYLGQGTQVTVSS | low polyreactivity |
| QVQLVESAGGLFQAGGSLRLSCAASGRTFYSNTMGWYRQAPGKEREFVAAIPSIVGSTYYADSVKGRFTISRDNSKNTVYLQMKSLKPEDTAVYDCAVTDYYSYLLRYDSWGQGTEVTVSS | low polyreactivity |
| QVQLVESAGGLVQAGASLRLSCAASGGTSPVYAMGWYRQAPGKERELVAAIRYSGGRTNYADSVKGRFTISRDNAKNTVYLQMNSLKPEDTAVYYCAARGYRYQGDYWGQGTQVTVSS | high polyreactivity |
| QVQLVESAGGLVQAGASLRLSCAASGSTFYYYAMGWYRQAPGKERELVAAIDWDSGSTYYADSVKGRFTISRDNAKNTVFLQMNSLNPEDTAVYYCAADSWFSDFDYWGQGTQETVSS | high polyreactivity |
| QVQLVESAGGLVQAGASLRLSCDASGSTFVYYDMGWYRQAPGKERELVASISWSGGSTSYSDSVKGRFTISRDNAKNTVYLQMNSLKPEDTAVYYCNKSNPDYDGLAIHAFDYWGQGTQVTVSS | low polyreactivity |
| QVQLVESAGGLVQAGGILRLSCAASGGIFRGYAMGWYRQAPGKERELVATIRSSGRTNYADSVKGRFTISRDNAKNTVYLQMNSLKPEDTAVYYCNKRRWWQYDRWGDWVLGGDDYWGQGTQVTVSS | low polyreactivity |
| QVQLVESAGGLVQAGGILRLSCAASGRIFTRNAMGWYRQAPGKERELVAAISSSSGSKYYADSVKGRFTISRDNAKNTVYLQMNSLKPEDTAVYYCAARSYYYSWGYDHWGQGTQVTVSS | high polyreactivity |
| QVQLVESAGGLVQAGGRLRLSCAASGFTFKKYAMGWYRQAPGKERELVASITWSGGSTSYADSVKGRFTISRDNAKNTVYLQMTSLKPEDTAVYYCAAATFVYRLRYNRFDYGGQGTQVTVSS | high polyreactivity |
| QVQLVESAGGLVQAGGSHRLSCAASGFIFDSYAMGCYRPAPGKERELVAAITYSGSSTYYADSVKGRFTISRDNAKNTVYLQMNSLKPEDTGVYYCAAVWRYSHLYGYWGQGTQVTVSS | high polyreactivity |
| QVQLVESAGGLVQAGGSLRISCAASGIIFARYSMGWYRPAPGKERELVAAINSSGGDTYYADSVKGRFTISRDTANNTVYLQMISLKPEDPAVYYCAKVISYLVVLPRTERYEGDYWGQGTQVTVSS | low polyreactivity |
| QVQLVESAGGLVQAGGSLRLICAASGFTSNVYTMGWYRQAPGKERELVAAITSGGSTNYADSVKGRFTISRDNAKNTVYLQMNSLKPEDTAVYYCNTDVKEYFHHEGYPLRWEYDYWGQGTQVTVSS | low polyreactivity |
| QVQLVESAGGLVQAGGSLRLSCAASGFIFEWYTMGWYRHAPGKERELVARISSDGSTTYADSVKGRFRISRDNAKNTVYLQMNSLKPEDTAVYYCAADVTYPGLKYIFDYWGQGSQVTVSS | low polyreactivity |
